# Test: soluble on expression in E. coli; label from the status in PepcDB or PDB records
row,Sequence,soluble on expression in E. coli
1,MTDETTQNIKDKTEEELAALLDQTLGEFTATPAPKPRTTDDELDELMASADQEAAQKAAKDFQKMLEQMVTLQEEAMKKAGADPSEGEGEQPLDPNDPEALAMMDALKQLMECSSNVANASNPEEFMAGLDMLRSPNSPMEPFMSMIMQTLASKEVMYPPLKEIFDNYPKYLEDNGAGLDAETKERYEKQFEVLGKICTEFEKQPELAEVQPVDAATQPAPEADPASIEHFEKLGKLLVELQQYGYPPKELVGALPDGWQIDESGLPKVADAAAATEACSIM,soluble
2,MSRSDAGRPAPTGADADRRTMVLESAMATFARFGYRKTSMEEVARAAHISRPGLYFLFSSKESLFRAAVTQALHRDITAVERALADGDRPLPERLVEAFDHWAGRYVGPLTRDVATVIEANPGILGEVVEVLPRRFEELVTDAITVATGREGAVRIAQTMISASTGLKHQVGSRESYLERLTVAVGLLLR,not soluble
3,MGSDKIHHHHHHMENILDKLGIELNEQTRLTNDSKFTFNCHSGLSCFNTCCSNLDIVLTPYDILRMKNRLGLTSVEFISEYTEPVIQKESKLPFLKLKLGDEGKCRFVAAEGCTVYGDRPAACRYYPLGFGIYKNEEAGDDFYFLIREDHCKGFEEEREWTVGEWRKNQGVDEYDDKNRVWMEVILNKKLYSPELEPDEKSLKMFFMASYDLDAFRDFVFESRFLDVFDIEEERLEMIKNDEAELMLFAHQWLLFALFKKPTMNLKQV,not soluble
4,MLRHNVPIRRDLDKIACDHGFDFHVIDNEIYWDESRAYRFTLRQIEEQIEKPTAELHQMCLEIVERAVRDEQSMQQLAIPPLYWDVIAESWRSRDPSLYGRMDFVWCGKDPVKLLEYNADTPTSLYESSYFQWLWLEDARRSGAIPRDADQYNAIQERLIARFSELYSREPLYFCCCEDTDEDRTTVLYLQDCAQQAGQETRFIYIEELGLGVGGVLTDLDDNVIRRAFKLYPLEWMMRDDNGPLLRKRREQWIEPLWKSILSNKGLLPLLWRFFPGHPNLLPAWFEGEKSLAAPGESSVRKPIYSREGGNVTIFDERQNVIDHADGDYADEPMIYQAFQPLPRFGDSYTLIGSWIIDDEASGMGIREDNTLITKDTSRFVPHYIAG,not soluble
5,MFPIKKRKAIKNNNINAAQIPKHIAIIMDGNGRWAKQKKMPRIKGHYEGMQTVRKITRYASDLGVKYLTLYAFSTENWSRPKDEVNYLMKLPGDFLNTFLPELIEKNVKVETIGFIDDLPDHTKKAVLEAKEKTKHNTGLTLVFALNYGGRKEIISAVQLIAERYKSGEISLDEISETHFNEYLFTANMPDPELLIRTSGEERLSNFLIWQCSYSEFVFIDEFWPDFNEESLAQCISIYQNRHRRFGGL,soluble
6,MFLPVLDSLPSDYDLLRKTYSRMKLEWSTHDLISHCVQEEERLTNEKKEHDLVAGKVICDKKRKQYDECLEAVLGN,soluble
7,MTAWLLSLALNLPFLGGPQEYQILVALGCSAPRHVQNGYREMLAHEVLPRLAEKVTTTQVRLTLAPITGRSYTAPARVLETPNPLSTPRFQLEEAKKTFQKEALRTFDELRKRAAAECSRGTEIIGALKAAGERARKPGRILVLAHGFEQSELMNLYDYRLKLEKREVRQGLLQRVKARLGLPNLKDQEVCIAGITAGNDNNANARLTTSIKAFWEELIQASGGRLVGYGTTPRVCPFL,soluble
8,MPLTFAHSFADAVPSLSVPWRAEQWPDPRIIVFNHELGQELGIDEASLLSNITQQGHAQAYSGHQFGQFNPLLGDGRALVLGDCAQTNAPHGQFEISLKGSGPTPFARRGDGRATLGPMLREYLISEALHGLGIPTTRSLAVITTGTDVQRERLLPGAVVVRVAQNHLRVGSVQCAAMRDDDSLAALVRYALSSHEDGVSDAEAAGLLLRRVSTSQAKLVAQWMRFGFVHGVMNTDNVTLSGQTIDFGPCAFIDSFHPQAVFSSIDSHGRYSFGRQPSIMGWNIARLAEALLPLMSIDEARNIVHEFPDMYRRSWLDEMADAVGISPDDDHAAGVLDDLVALLDVHRPDYAQFMRSLSDGTTVSLFPWAQQWEAEVSSLRVAAPRNPVYVPRNYLVEDALEHAMNADMSVFSLLVEAGKNPYLREKRFEKLENPAPETWQDYVTYCGT,not soluble
9,MLPSAPAPLAHFLLFLHLIHSARPEDGVPIETIHAPMFEDVFDVRIHEGADKGSRLTMSQDLQKSTEPLGHCFGQLETDVDWIEWKSSRSAFYTTAQMPISATKNSNNLVGSLHLLCAGNQMHTFPFRVHITHRNHHPPTFSKNSFKFHVPTTLPIGSVITTLEVKDQDPVIYNSERRLAFTKDEPLVDILQDGTLKLKSDLSILTPYTPQRMQILAIDYGSPQLFTIANITLIPVTVSMVRELHVNVATEEYQIFEWEHPQYGTVDKYRLGIRRDDQVVYEEELEAAKTLALTKIMLSNSMNVSFQVTAIDENGETSSEWTQIGPIDRDVICKGECSRGGTPLCYVGAFNRVEQFIDARGAHCLCYPGFMGVSCETIGSMWTLTTLDVFVDLIRAMANKLNSIECSQIAI,not soluble
10,MRNIGIIINKEKDKENKILNLVILKVKEYLNPDEIKVIDQFYKGDYKDLMSLDLLIVLGGDGTLLGVARKFSTVIDTPILGINIGNLGFLVTAEISELDEALYRIKVGDYKVEERMLLSCTIEGVTCSEERALNDIVVARGTLSRMAQYEVFINDELYATFKGDGVIISTPVGSTAYSFSAGGPLIMPDLQIVSIVPICPHTPNSRPMIIDGNNKVRVKPLINESDVFVTIDGQKALKLEKHNEVLIKKAKEFFRIISFDNKSYFKVLRKKLFKIELEHHHHHH,not soluble
11,SLSAALRTLKHVLYYSRQCLMVSRNLGSVGYDPNEKTFDKILVANRGEIACRVIRTCKKMGIKTVAIHSDVDASSVHVKMADEAVCVGPAPTSKSYLNMDAIMEAIKKTRAQAVHPGYGFLSENKEFARCLAAEDVVFIGPDTHAIQAMGDKIESKLLAKKAEVNTIPGFDGVVKDAEEAVRIAREIGYPVMIKASAGGGGKGMRIAWDDEETRDGFRLSSQEAASSFGDDRLLIEKFIDNPRHIEIQVLGDKHGNALWLNERECSIQRRNQKVVEEAPSIFLDAETRRAMGEQAVALARAVKYSSAGTVEFLVDSKKNFYFLEMNTRLQVEHPVTECITGLDLVQEMIRVAKGYPLRHKQADIRINGWAVECRVYAEDPYKSFGLPSIGRLSQYQEPLHLPGVRVDSGIQPGSDISIYYDPMISKLITYGSDRTEALKRMADALDNYVIRGVTHNIALLREVIINSRFVKGDISTKFLSDVYPDGFKGHMLTKSEKNQLLAIASSLFVAFQLRAQHFQENSRMPVIKPDIANWELSVKLHDKVHTVVASNNGSVFSVEVDGSKLNVTSTWNLASPLLSVSVDGTQRTVQCLSREAGGNMSIQFLGTVYKVNILTRLAAELNKFMLEKVTEDTSSVLRSPMPGVVVAVSVKPGDAVAEGQEICVIEAMKMQNSMTAGKTGTVKSVHCQAGDTVGEGDLLVELE,soluble
12,MGSDKIHHHHHHMHEPVTRILVVATNAPVPGLVAAVKQGFHQRVDYLELAERFDNRHVDYGIVRPNRMLERLEGITRFDLRLASQVNQIVRSARYQAVISLSERVGIPLALMLPQTVRHLVIFHHGMSARKLQLIRTLHLQHRWDIVAAISEAEAKGMRQALGLPAERVVALHTPVDTAFYQPQPGRQQASVVQSLGLSHRDYPTLIRAMRRLPHIPCHLRVGSSWISGRSGHEREVLPANISLQPFVPPVQLRTCYQQSRIVVVPIKASTQWSAGCTSVQAAQAMGRPVIATRRPGLAEYVDEGRTALLVEPGDADGMADAIATLWENPDRAERMGQAGRQLMEERFTIEQWLDRVVELTHKMMDWPARRSTSTMTGSAV,not soluble
13,MGHHHHHHSHMPKKKTGARKKAENRREREKQLRASRSTIDLAKHPCNASMECDKCQRRQKNRAFCYFCNSVQKLPICAQCGKTKCMMKSSDCVIKHAGVYSTGLAMVGAICDFCEAWVCHGRKCLSTHACACPLTDAECVECERGVWDHGGRIFSCSFCHNFLCEDDQFEHQASCQVLEAETFKCVSCNRLGQHSCLRCKACFCDDHTRSKVFKQEKGKQPPCPKCGHETQETKDLSMSTRSLKFGRQTGGEEGDGASGYDAYWKNLSSDKYGDTSYHDEEEDEYEAEDDEEEEDEGRKDSDTESSDLFTNLNLGRTYASGYAHYEEQEN,soluble
14,MGSDKIHHHHHHMPDLTTAPDAEILMAQPRGFCAGVDRAIEIVERALTRFGAPIYVRHEIVHNAYVVADLRRKGAVFVRELDEVPAGATVIFSAHGVSKDVRAEAASRGLNVFDATCPLVTKVHVEVGKMRAEGCEIVMIGHRGHPEVEGTMGQAEGGMLLVESVADVAGLVVADPARLAYVTQTTLSVDETLEIVAALKARFPLIREPKKQDICYATQNRQDAVKFMAPQVDVVIVVGSPNSSNSNRLRELAARLGVPAYMVDAPDQVHPEWVAGKRRIGLTAGASAPEELAQSIVARLRELGAGHVRALAGIEENMAFPLPRGLQAAATVGVTA,not soluble
15,DAGGGVGKELVDLKIIWNKTKHDVKVPLDSTGSELKQKIHSITGLPPAMQKVMYKGLVPEDKTLREIKVTSGAKIMVVGSTI,soluble
16,MEYKSTRHAKYLCNYHFVWIPKYRRKVLTGEVAEYTKEVLRTIAEELGCEVLALEVMPDHIHLFVNCPPRYAPSYLANYFKGKSARLILKKFQELKKSTNGKLWTRSYFVSTSGNVSSETIKKYIEEQWAKENEED,soluble
17,NGKLFLVGTPIGNLKDITLRALETLQNCDVIAAEDTRQSLKLLNHFDIKKPLISYHKFNENNRSSELMDMVREGKKVALVTDAGMPGISDPGSVIVEKFIENNLEFEVIPG,soluble
18,MSLNKPKIVILGAGYGGLMTVTRLTKYVGPNDADITLVNKHNYHYETTWMHEASAGTLHHDRCRYQIKDVINQSRVNFVQDTVKAIKIDEKKVVLANGELQYDYLVIGLGAVPETFGIKGLKEYAFPIANINTSRLLREHIELQFATYNTEAEKRPDRLTIVVGGAGFTGIEFLGELAARVPELCKEYDVDRSLVRIICVEAAPTVLPGFDPELVDYAVHYLEENGVEFKIGTAVQECTPEGVRVGKKDEEPEQIKSQTVVWAAGVRGHPIVEEAGFENMRGRVKVNPDLRAPGHDNVFILGDSSLFMNEDTERPYPPTAQIAMQQGITVAKNLGRLIKGGELEEFKPDIKGTVASLGEHNAVGVVYGRKLKGTPASFMKKVIDNRSLFMIGGLGLTLKKGKFKEGHHHHHH,soluble
19,MNLLEKTRKINAMLQKAAGRPVNFKEMAETLCEVIEANVFVVSRRGKLLGFAIKQSIENERMKRMLEERQFPEEYTKNLFNITETSPNIDINSEYTAFPVENRDLFKTGLTTIVPINGGGERLGTLILSRLDREFDNDDLILAEYGATVVGMEILREKAEEIEEEARSKAVVQMAISSLSYSELEAIEHIFEELDGTEGLLVASKIADRVGITRSVIVNALRKLESAGVIESRSLGMKGTYIKVLNDKFLSELEKLKSS,not soluble
20,KKSPSAGSGSNGGNKKISQEEGEDNGGEDNKKLRGALSSAILSEKPNVKWEDVAGLEGAKEALKEAVILPVKFPHLFKGNRKPTSGILLYGPPGTGKSYLAKAVATEANSTFFSVSSSDLVSKWMGESEKLVKQLFAMARENKPSIIFIDQVDALTGTRGEGESEASRRIKTELLVQMNGVGNDSQGVLVLGATNIPWQLDSAIRRRFERRIYIPLPDLAARTTMFEINVGDTPSVLTKEDYRTLGAMTEGYSGSDIAVVVKDALMQPIRKIQSATHFKDVSTEDDETRKLTPSSPGDDGAIEMSWTDIEADELKEPDLTIKDFLKAIKSTRPTVNEDDLLKQEQFTRDFGQEGN,soluble
21,GPGSMSAETLACTYAALMLSDAGLPTSAENIAAAVKAAGVEMRPTLPIIFARFLEKKSVETLMAAAAAQAPTAASAPSPAAGAASAAAAGGKVEDKKKDEPEEEGDDDMGFGLFD,soluble

# Reference: the DeepSol protein solubility set
